Assay results: article PMC10724200, “A peptide derived from interleukin-10 exhibits potential anticancer activity and can facilitate cell targeting of gold nanoparticles loaded with anticancer therapeutics” (Communications Chemistry, 2023)
Entries after “also recorded” stand apart in the source; their conditions may differ. Ends that are not written are not given here.

Legend:
[1] = target: T1, recombinant receptor human IL-10Ra protein (Homo sapiens, UniProt Q13651); assay: Biolayer interferometry kinetic assay, binding to IL-10Ra; conditions: for kon: read-out: ka (association constant)
T1 sequence (Q13651 22-578): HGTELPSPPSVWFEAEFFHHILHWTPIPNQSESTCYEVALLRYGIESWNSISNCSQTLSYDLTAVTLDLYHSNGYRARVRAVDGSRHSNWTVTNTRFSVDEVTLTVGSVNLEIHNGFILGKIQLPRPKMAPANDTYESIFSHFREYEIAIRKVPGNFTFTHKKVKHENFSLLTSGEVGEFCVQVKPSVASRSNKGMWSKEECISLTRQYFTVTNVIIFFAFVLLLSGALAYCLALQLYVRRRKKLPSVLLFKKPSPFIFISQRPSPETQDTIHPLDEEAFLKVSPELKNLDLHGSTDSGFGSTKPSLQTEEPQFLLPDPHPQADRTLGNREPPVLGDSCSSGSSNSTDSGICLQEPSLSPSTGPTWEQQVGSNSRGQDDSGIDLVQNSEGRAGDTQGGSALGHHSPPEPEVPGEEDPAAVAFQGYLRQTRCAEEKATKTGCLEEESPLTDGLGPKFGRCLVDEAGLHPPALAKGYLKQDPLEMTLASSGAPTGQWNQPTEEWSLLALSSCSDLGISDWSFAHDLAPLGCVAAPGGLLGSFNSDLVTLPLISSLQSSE
Description: Biolayer interferometry (BLI) was applied to analyze peptide–receptor protein interactions. BLI was performed with a ForteBio Octet RED96e System (Sartorius AG, Göttingen, Germany) by using high-precision streptavidin and biosensors. The biosensors were hydrated in a plate for 15 min and then loaded with 10 μg/mL recombinant receptor human IL-10Ra protein and incubated for 150 s. […] After the association step, the biosensor was shifted to the dissociation buffer, phosphate-buffered saline (PBS) with 0.05% Tween20, for dissociation. Dissociation was recorded until equilibrium was reached (120 s).
To measure the binding ability of the designed and negative control peptides (NM25, NK20, NK20a, and control scramble peptide CG20) to the receptor IL-10Ra in vitro, BLI experiments were performed. […] When binding with IL-10Ra, the association constant (ka) of NK20 and NK20a was 1.02 × 10^4 (1/Ms) and 8.14 × 10^3 (1/Ms), respectively. The ka values of the refined peptides were approximately 12-fold higher than that of NM25. […] The equilibrium dissociation constant (KD) of NK20a interactions with IL-1R1was approximately 2000 times greater than that with IL-10Ra, and the calculated dissociation constant of NK20a interactions with IL-1R1 was to be 5000 times greater than that with IL-10Ra interactions (Table 2). […] As a result, NK20a was used for further investigations in this study.
Fig. 3 BLI kinetic assays of the designed peptides binding to the receptor IL-10Ra. Wavelength shift curves show the association and dissociation of the designed peptides (a) NM25, (b) NK20, (c) NK20a, (d) CG20 binding to the IL-10 receptor, and (e) NK20a binding to a control receptor IL-1R1 at various concentrations. Dissociation was recorded at 120 s after the binding started (black dotted line).

BJAB B-lymphoma cells = assay: Cell viability assay (CCK-8), B-lymphoma cells; format: cell-based; conditions: 50 μg/mL NK20a and/or 10 ng/mL IL-10, 48 h, triplicate
Description: BJAB B-lymphoma cell lines were cultured in RPMI 1640 medium supplemented with 10% fetal bovine serum. RAW 264.7 macrophage and BT-474 human breast tumor cell lines were cultured in Dulbecco’s Modified Eagle Medium (DMEM) supplemented with 10% fetal bovine serum, 1% L-glutamine, 100 U/ml penicillin, 100 U/ml streptomycin, and sodium pyruvate. The cells were incubated at 37 °C in a 5% CO2 atmosphere.
For the cell viability assay, B-lymphoma cells were cultured in 96-well plates at a density of 3 × 10^3 cells/well for 24 h. The cells were then treated with 10 ng/mL IL-10 and 50 μg/mL NK20a, and further incubated for 48 h. After incubation, 10 μL of Cell Counting Kit-8 (CCK-8; Enzo Life Sciences, NY, USA) reagent was added, and the cells were incubated at 37 °C for 1 h. Cell viability was quantified by measuring the absorbance at 450 nm by using an ELISA plate reader (CLARIOstar Plus, BMG Labtech, Ortenberg, Germany).
Fig. 4 In vitro binding assay and cytotoxicity study. a B-lymphoma cells were treated with NK20a, and the fluorescence of the treated cells was analyzed through flow cytometry to determine the binding ability of NK20a to the cell surface. The fluorescence distribution of FITC was categorized as treated with NK20a (green) and untreated (red). b Bar chart showing the cell viability of the B-lymphoma cell line treated with 10 ng/mL IL-10, 50 μg/mL NK20a, and both, respectively. […]

RAW 264.7 macrophages = assay: Atomic force microscopy of macrophage morphology / activation; format: cell-based; conditions: RAW 264.7, AFM; LPS 10 ng/mL, IL-10 10 ng/mL, NK20a 50 μg/mL pretreatment 30 min with LPS; fixed after 24 h
Description: Cell morphology was evaluated through atomic force microscopy (AFM) to observe the effects of the peptide on the cells. For AFM experiments, RAW 264.7 macrophages (5 × 10^4 cells/mL) were seeded on coverslips that had been treated with HCl to facilitate cell attachment. The cells were treated with lipopolysaccharides (LPS), NK20a, or IL-10 and incubated at 37 °C. After 24 h of incubation, the medium was removed, and the cells were washed twice with PBS. The cells were then fixed with 4% glutaraldehyde for 40 min. Finally, the fixation solution was removed, the samples were gently washed three times with Milli Q water, and then the samples were dried in a desiccator for 3 h. Cell morphology was imaged using an AFM instrument (Nanowizard, JPK BioAFM, Bruker Nano GmbH, Berlin, Germany). […] The AFM probes used were oxide-sharpened silicon nitride (Si3N4) probes (OMCL-TR400PB-1, Olympus, Tokyo, Japan) with a spring constant of 0.02 N/m. The SPM image processing software package version 3.1.6 (JPK BioAFM, Bruker Nano GmbH, Berlin, Germany) was used for processing and analysis of AFM image data.
Macrophages play a key role in tumor cell clearance. […] In this study, we examined the ability of NK20a to inhibit the anti-inflammatory effects of IL-10 on macrophages. The RAW 264.7 macrophage cell line was used in the evaluation, and the activation of macrophage cells was visualized through AFM. […]

[2] = tested on: BT-474 breast cancer cells; assay: Therapeutic efficacy: cell viability (CCK-8), BT-474 breast cancer cells; format: cell-based, human
From the text: 5-FU is a cytotoxic chemotherapeutic drug used in the treatment of a variety of cancers, including breast cancer. […] The gold nanoparticles fabricated in this study may be used as a delivery material to deliver 5-FU into cancer cells. Here, we loaded 5-FU onto NK20a/Poly A15@Au and Poly A15@Au nanoparticles.

[3] = set-up: method as in 2 sources, ref 40 = [40]; PMID 22211087; doi:10.7150/ijms.9.33; 40. Kadoyama K Adverse event profiles of 5-fluorouracil and capecitabine: data mining of the public version of the FDA adverse event reporting system, AERS, and reproducibility of clinical observation ||| ref 49 = [49]; 49. Casale, J. & Patel, P. Fluorouracil [Updated 2022 Nov 24]. In StatPearls. (StatPearls Publishing, Treasure Island (FL), 2023).; conditions: cited from earlier work
From the text: 5-FU is a cytotoxic chemotherapeutic drug used in the treatment of a variety of cancers, including breast cancer. […] The gold nanoparticles fabricated in this study may be used as a delivery material to deliver 5-FU into cancer cells. Here, we loaded 5-FU onto NK20a/Poly A15@Au and Poly A15@Au nanoparticles. […] It works by inhibiting the normal synthesis of thymidine by incorporating 5-FU metabolites into DNA and RNA, eventually leading to the arrest of synthetic pathways and subsequent apoptosis of treated cells[47],[48]. 5-FU is typically administered via intravenous injection. Infusions of 5-FU can be rapidly […] through the circulatory system, and prolonged administration of 5-FU is required to maintain a high level of 5-FU in the body, thereby enhancing clinical efficacy. However, its nonspecific toxicity, ...

[4] = target: T2, recombinant receptor human IL-10Ra protein (human, UniProt Q13651 22-235); assay: BLI; ForteBio Octet RED96e, streptavidin biosensors loaded with 10 μg/mL recombinant human IL-10Ra (150 s); peptides at 3.12-100.0 μM, association 120 s; dissociation 120 s in PBS with 0.05% Tween20; conditions: both partners purified
T2 construct: Interleukin-10 receptor subunit alpha, human, recombinant; also called IL-10 receptor
T2 sequence (looked up): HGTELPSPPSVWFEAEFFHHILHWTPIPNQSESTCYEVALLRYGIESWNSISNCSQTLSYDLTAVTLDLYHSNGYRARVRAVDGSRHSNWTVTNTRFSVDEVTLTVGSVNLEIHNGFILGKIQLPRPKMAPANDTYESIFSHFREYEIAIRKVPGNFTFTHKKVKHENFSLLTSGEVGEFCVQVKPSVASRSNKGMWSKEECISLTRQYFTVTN

[5] = target: T3, recombinant receptor human IL-10Ra protein (human, UniProt Q13651 22-235); assay: BLI; steady-state analysis
T3 chain: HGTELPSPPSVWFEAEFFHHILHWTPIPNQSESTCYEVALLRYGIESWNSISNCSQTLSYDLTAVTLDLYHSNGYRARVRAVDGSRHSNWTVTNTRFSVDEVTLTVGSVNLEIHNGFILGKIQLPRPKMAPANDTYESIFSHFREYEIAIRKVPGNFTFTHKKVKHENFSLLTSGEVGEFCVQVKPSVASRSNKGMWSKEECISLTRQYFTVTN

receptor IL-1R1 = receptor IL-1R1 (UniProt P14778 18-569, Source and limits not given; taken as the recombinant extracellular domain (UniProt topological domain 18-336) by convention. Human inferred from the human IL-10Ra used in the same BLI assay. Likely); assay: BLI; control receptor IL-1R1 in place of IL-10Ra; NK20a at various concentrations; conditions: both partners purified
Chain of receptor IL-1R1 (P14778 18-569): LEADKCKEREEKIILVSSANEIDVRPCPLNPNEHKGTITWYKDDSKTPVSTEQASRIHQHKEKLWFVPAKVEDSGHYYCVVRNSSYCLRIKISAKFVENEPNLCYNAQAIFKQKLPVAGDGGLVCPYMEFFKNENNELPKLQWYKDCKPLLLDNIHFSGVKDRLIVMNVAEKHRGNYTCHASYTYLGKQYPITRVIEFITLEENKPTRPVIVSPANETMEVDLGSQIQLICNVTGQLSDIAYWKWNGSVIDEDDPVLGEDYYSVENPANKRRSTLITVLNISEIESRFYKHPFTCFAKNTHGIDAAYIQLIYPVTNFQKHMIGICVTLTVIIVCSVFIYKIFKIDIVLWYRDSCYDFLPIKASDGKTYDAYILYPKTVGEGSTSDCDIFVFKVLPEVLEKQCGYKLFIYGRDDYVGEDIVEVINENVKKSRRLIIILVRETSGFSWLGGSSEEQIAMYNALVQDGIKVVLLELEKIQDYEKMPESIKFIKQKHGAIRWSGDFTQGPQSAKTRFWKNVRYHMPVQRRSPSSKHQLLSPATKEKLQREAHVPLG

[6] = BLI kinetic, human IL-10Ra, peptides 3.12-100.0 μM, association 120 s

**Q.** With NMLRDLRDAFSRVKTFFQMK [NK20] as the molecule, how does the kon [1, 6] read?
**A.** 10200 M⁻¹ s⁻¹

**Q.** With NMLRDLRDAFSRVKTFFQMKDQLDN [NM25] as the molecule, how does the kon [1, 6] read?
**A.** 832 M⁻¹ s⁻¹

**Q.** Which “cell proliferation / viability (in words)” value (BJAB B-lymphoma cells) does the source give for “IL-10: immune regulatory cytokine with strong anti-inflammatory activity” here?
**A.** did not significantly promote the proliferation of lymphoma B cells

**Q.** What about the “kd (dissociation constant)” value ([1]; BLI kinetic, human IL-10Ra, dissociation 120 s in PBS with 0.05% Tween20) of the same molecule?
**A.** <1e-07 s⁻¹

**Q.** And the “ka (association constant)” value [1, 6]?
**A.** 224000 M⁻¹ s⁻¹

**Q.** And the “macrophage activation, morphology (in words)” value (RAW 264.7 macrophages)?
**A.** the activation of macrophages was suppressed; also recorded: inhibited the inflammation of LPS-stimulated cells

**Q.** With “CPLNGSTVYGHLRHCLSCSG [CG20, random, control scramble peptide, reference compound]” as the molecule, how does the “binding to IL-10Ra (in words)” value ([1]; BLI) read?
**A.** not able to bind to IL-10Ra

**Q.** For O=c1[nH]cc(F)c(=O)[nH]1 [5-FU, 5-fluorouracil], which survival rate ([2]; BT-474, free 5-FU at 80 μM, 72 h, CCK-8) is on record?
**A.** more than 70%

**Q.** And the “cell survival / therapeutic effect on BT-474 (in words)” value ([2]; CCK-8, 72 h, 5-FU free up to 80 μM)?
**A.** did not exhibit a significant therapeutic effect against the breast cancer cells

**Q.** And the “membrane permeability (in words)” value [3]?
**A.** poor membrane permeability

**Q.** And the “membrane permeability / half-life in plasma (in words)” value [3]?
**A.** poor membrane permeability, and short half-life in plasma

B1: NM25 peptide (peptide)
peptide: NMLRDLRDAFSRVKTFFQMKDQLDN
notes: human IL-10; also called original peptide; source: synthetic peptide (GeneMark, GMbiolab Co., solid-phase)
**Q.** With B1 as the molecule, how does the Kd [4] read?
**A.** 41 µM

**Q.** And the koff [4]?
**A.** 0.0341 s⁻¹

**Q.** What about the Kd [5] of the same molecule?
**A.** 0.55 µM

B2: NK20 peptide (peptide)
peptide: NMLRDLRDAFSRVKTFFQMK
notes: truncation of NM25 (five C-terminal residues removed); stretch of human IL-10; source: synthetic peptide (GeneMark, GMbiolab Co., solid-phase)
**Q.** Which Kd [4] does the source give for B2 here?
**A.** 21.4 µM

**Q.** What about the koff [4] of the same molecule?
**A.** 0.218 s⁻¹

**Q.** What about the Kd [5] of the same molecule?
**A.** 0.26 µM

B3: NK20a peptide (peptide)
peptide: NMLRNLRNAFSRVKTFFQMK
notes: NK20 with two Asp replaced by Asn; stretch of human IL-10; source: synthetic peptide (GeneMark, GMbiolab Co., solid-phase)
**Q.** Which Kd [4] does the source give for B3 here?
**A.** 11.2 µM

**Q.** What about the koff [4] of the same molecule?
**A.** 0.0909 s⁻¹

**Q.** What about the Kd (receptor IL-1R1) of the same molecule?
**A.** 28000 µM

**Q.** And the koff (receptor IL-1R1)?
**A.** 512 s⁻¹

**Q.** What about the Kd [5] of the same molecule?
**A.** 0.15 µM

B4: Human interleukin-10 (IL-10) (ligand, UniProt P22301 19-178, looked up)
chain: SPGQGTQSENSCTHFPGNLPNMLRDLRDAFSRVKTFFQMKDQLDNLLLKESLLEDFKGYLGCQALSEMIQFYLEEVMPQAENQDPDIKAHVNSLGENLKTLRLRLRRCHRFLPCENKSKAVEQVKNAFNKLQEKGIYKAMSEFDIFINYIEAYMTMKIRN
notes: Interleukin-10, human; the methods of the BLI describe only the peptides as analytes; also called IL-10 cytokine
**Q.** Which results are given for B4?
**A.** Kd [4]: < 1e-06 µM; koff [4]: < 1e-07 s⁻¹; kon [4]: 224000 M⁻¹ s⁻¹; Kd [5]: 1 µM
